Data: patent publication US11407825B2, “NaPi2b-targeted polymer antibody-drug conjugates and methods of use thereof” (Mersana Therapeutics, Inc., priority 2018, dated 2022)

Experiment: Phase 1b dose escalation study of XMT-1536: safety and tolerability (adverse events, DLT)
Format: in vivo, human
Excerpt: The study presented herein is an open label, multi-center Phase 1b study of XMT-1536 administered as an intravenous infusion once every three or four weeks. The dose escalation (DES) part of the study will establish the maximum tolerated dose (MTD) or recommended Phase 2 dose (RP2D) for XMT-1536 in patients with a number of tumor types likely to express NaPi2b, with a focus on patients with platinum-resistant ovarian cancer and non-squamous non-small cell lung cancer (NSCLC). […] The RP2D may differ from the MTD and may take into account tolerability, pharmacokinetic and pharmacodynamic measures, and efficacy of XMT-1536 based on RECIST 1.1. After the first cycle, patients may continue to receive XMT-1536 until disease progression provided the drug is well-tolerated and patients continue to derive clinical benefit in the opinion of the Investigator. The DES segment of the study utilized an accelerated titration design. The first 3-week cycle of treatment constitutes the dose limiting toxicity (DLT) evaluation period. For the first two dose levels, a minimum of 1 patient was treated at each dose level. If this patient experiences a treatment-emergent adverse event of Grade 2 or higher, 2 additional patients will be added at this dose level, and the study will subsequently follow a 3+3 design, as described below. […] Starting with Dose Level 3, the study will follow a standard 3+3 design, with 3 patients enrolled initially at each dose level. […] However, in the event of 1 DLT, 3 additional patients will be enrolled at the same dose level. Any dose level with 2 or more DLTs will be considered to exceed the MTD and subsequent patients will be enrolled at lower dose level(s). After the first cycle, patients may continue to receive XMT-1536 until disease progression if the drug is well-tolerated and patients continue to derive clinical benefit in the opinion of the Investigator.
After an August 2018 protocol amendment, each cycle will be 4-week (28 day) dose cycle. The first two, 4-week cycles of treatment (56 days) constitutes the dose limiting toxicity (DLT) evaluation period. Beginning with this amendment, up to 10 patients will be enrolled for evaluation at 20.0 mg/m^2 under the new 4-week cycle dose regimen. If that dose is cleared by the SRC, subsequent dose groups will follow a modified 3+3 design. Three patients will be enrolled initially and if toxicity issues arise, the SRC will review all pertinent data and may decide to add more patients to fully evaluate a dose in question and/or lower the dose. […] The observation period for DLTs is 56 days, between Day 1 through the end of Cycle 2 which includes the pre-dose assessments before receiving the Cycle 3 dose. A maximum of ten patients will be enrolled per dose level prior to the SRM. that will be conducted no later than 5 days after at least the sixth patient dosed in each level has completed Cycle 2, Day 28 evaluations. The data available for the patients dosed in all prior will be factored into the data review for each applicable dose escalation SRM. Any dose level with 2 or more DLTs occurring in 6 or fewer treated patients will be considered to exceed the MTD and subsequent patients will be enrolled at lower dose level(s). After the second cycle, patients may continue to receive XMT-1536 until disease progression if the drug is well-tolerated and patients continue to derive clinical benefit in the opinion of the Investigator. After completion of DES, the EXP segment of the study will be opened.
All adverse events will be graded according to the National Cancer Institute (NCI) Common Terminology Criteria version (CTCAE v4.03). The observation period for DLTs is 56 days, between Day 1 through end of Cycle 2 which includes the pre-dose assessments before receiving the Cycle 3 dose. […]

B1: XMT-1536: about 10-15 molecules of auristatin F-hydroxypropyl amide conjugated to a cysteine moiety of NaPi2b monoclonal antibody XMT-1535 via a PHF scaffold (conjugate, chains of the INN, looked up)
VH: QVQLVQSGAEVVKPGASVKMSCKASGYTFTGYNIHWVKQAPGQGLEWIGAIYPGNGDTSYKQKFRGRATLTADTSTSTVYMELSSLRSEDSAVYYCARGETARATFAYWGQGTLVTVSS
VL: DIQMTQSPSSLSASVGDRVTITCSASQDIGNFLNWYQQKPGKTVKVLIYYTSSLYSGVPSRFSGSGSGTDYTLTISSLQPEDFATYYCQQYSKLPLTFGQGTKLELK
modifications: auristatin F-hydroxypropyl amide via PHF scaffold
notes: about 10-15 molecules of auristatin F-hydroxypropyl amide conjugated to a cysteine moiety of NaPi2b monoclonal antibody XMT-1535 via a PHF scaffold
Gamma-glutamyltransferase (GGT) increased Grade 3, patients (TRAE, N = 37, May 10, 2019): 0
Gamma-glutamyltransferase (GGT) increased Total, patients (TRAE, N = 37, May 10, 2019): 4
Gamma-glutamyltransferase (GGT) increased Total, percent of patients (TRAE, N = 37, May 10, 2019): (11) %
Headache Grade 1, patients (TRAE, N = 37, May 10, 2019): 5
Headache Grade 1, percent of patients (TRAE, N = 37, May 10, 2019): (14) %
Headache Grade 2, patients (TRAE, N = 37, May 10, 2019): 5
Headache Grade 2, percent of patients (TRAE, N = 37, May 10, 2019): (14) %
Headache Grade 3, patients (TRAE, N = 37, May 10, 2019): 0
Headache Total, patients (TRAE, N = 37, May 10, 2019): 10
Headache Total, percent of patients (TRAE, N = 37, May 10, 2019): (27) %
Myalgia Grade 1, patients (TRAE, N = 37, May 10, 2019): 3
Myalgia Grade 1, percent of patients (TRAE, N = 37, May 10, 2019): (8) %
Myalgia Grade 2, patients (TRAE, N = 37, May 10, 2019): 1
Myalgia Grade 2, percent of patients (TRAE, N = 37, May 10, 2019): (3) %
Myalgia Grade 3, patients (TRAE, N = 37, May 10, 2019): 0
Myalgia Total, patients (TRAE, N = 37, May 10, 2019): 4
Myalgia Total, percent of patients (TRAE, N = 37, May 10, 2019): (11) %
Nausea Grade 1, patients (TRAE, N = 37, May 10, 2019): 12
Nausea Grade 1, percent of patients (TRAE, N = 37, May 10, 2019): (32) %
Nausea Grade 2, patients (TRAE, N = 37, May 10, 2019): 2
Nausea Grade 2, percent of patients (TRAE, N = 37, May 10, 2019): (5) %
Nausea Grade 3, patients (TRAE, N = 37, May 10, 2019): 0
Nausea Total, patients (TRAE, N = 37, May 10, 2019): 14
Nausea Total, percent of patients (TRAE, N = 37, May 10, 2019): (38) %
Pyrexia Grade 1, patients (TRAE, N = 37, May 10, 2019): 3
Pyrexia Grade 1, percent of patients (TRAE, N = 37, May 10, 2019): (8) %
Pyrexia Grade 2, patients (TRAE, N = 37, May 10, 2019): 1
Pyrexia Grade 2, percent of patients (TRAE, N = 37, May 10, 2019): (3) %
Pyrexia Grade 3, patients (TRAE, N = 37, May 10, 2019): 0
Pyrexia Total, patients (TRAE, N = 37, May 10, 2019): 4
Pyrexia Total, percent of patients (TRAE, N = 37, May 10, 2019): (10) %
Vomiting Grade 1, patients (TRAE, N = 37, May 10, 2019): 4
Vomiting Grade 1, percent of patients (TRAE, N = 37, May 10, 2019): (11) %
Vomiting Grade 2, patients (TRAE, N = 37, May 10, 2019): 1
Vomiting Grade 2, percent of patients (TRAE, N = 37, May 10, 2019): (3) %
Vomiting Grade 3, patients (TRAE, N = 37, May 10, 2019): 0
Vomiting Total, patients (TRAE, N = 37, May 10, 2019): 5
Vomiting Total, percent of patients (TRAE, N = 37, May 10, 2019): (14) %
grade of treatment-related adverse events (TRAEs) (as of February 2019): Grade 1 or 2
most common TRAEs (as of February 2019): anemia, arthralgias, fatigue, vomiting, anorexia, AST increase, diarrhea, dyspnea (unrelated or unlikely related), hypoalbuminema (unrelated or unlikely related), hypoxia (unrelated), headache, nausea, proteinuria and vomiting
number of SAEs related to study drug (as of February 2019): Two
Grade 4 or 5 TRAE (as of May 10, 2019): no Grade 4 or 5 TRAE
grade of adverse events (as of May 10, 2019): most adverse events being Grade 1 or 2
number of SAEs unrelated or unlikely related to treatment (as of May 10, 2019): Seventeen
number of possible treatment related SAEs (as of May 10, 2019): Two
patients with SAEs unrelated or unlikely related to treatment (as of May 10, 2019): 11
tolerability (as of May 10, 2019): well tolerated
toxicities often associated with microtubule-targeting agents or ADCs (neutropenia, ocular toxicities, peripheral neuropathy) (as of May 10, 2019): Low rate
number of dose limiting toxicities (at DL 5A (30 mg/m^2) and DL 6 (40 mg/m^2)): Two
MTD / RP2D (conclusions): Neither MTD nor RP2D has been identified
tolerability (maximum doses administered (40 mg/m^2)): well tolerated
tolerability (up to the 30 mg/m^2 or 36 mg/m^2 or 43 mg/m^2 dose level): well-tolerated
